This note sets out measurements from patent publication US12385055B2, “Compositions and methods for production of salidroside, icariside D2, and precursors of salidroside and icariside D2” (Whitehead Institute for Biomedical Research, priority 2017, dated 2025).

The target in data set [1] is Rhodiola rosea Rr4HPAAS, 4-hydroxyphenylacetaldehyde synthase, GenBank MF674522, SEQ ID NO: 2 (Rhodiola rosea, UniProt A0A2I6B3P0). The data set is described as follows: Michaelis-Menten kinetics of Rr4HPAAS against aromatic amino acids. The note with it: compared with L-tyrosine and L-DOPA; pH 8.0, 30° C. On the procedure:
(§1) The AAS enzyme assays were performed in 100 μL of reaction buffer (50 mM Tris, pH 8.0) containing 50 μg of recombinant enzyme, 200 μM PLP. Kinetic reactions were incubated with a range of amino acid substrate concentrations (1 μM-4 mM) at 30° C. for 30 minutes prior to quenching with 100 μL of 0.8 M formic acid. […] Rr4HPAAS reactions were also analyzed by LC-MS-UV. 50 μL of reaction mixture was analyzed by an Ultimate 3000 liquid chromatography system (Dionex), equipped with a 150 mm C18 Column (Kinetex 2.6 μm silica core shell C18 100 Å pore, Phenomenex) and coupled to an UltiMate 3000 diode-array detector (DAD) in-line UV-Vis spectrophotometer (Dionex) and a TSQ Quantum Access MAX triple-quadrupole mass spectrometer (Thermo-Scientific). To resolve chromatographically L-tyrosine, tyrosol and 4-HPAAA, compounds were separated through the use of an isocratic mobile phase containing 50 mM monopotassium phosphate pH 4.6, 15% (v/v) acetonitrile and 0.5 mM octyl sulfate. Rr4HPAAS product formation was quantified using the UV absorbance at 280 nm and compared to analytical standards using the diode array detector wavelength at a wavelength range of 200-500 nm and chromatographic retention time. […]
(§2) Kinetic constants such as Km and Vmax were determined by fitting raw data to the Michaelis-Menten equation using the nonlinear regression function in Prism (version 7.0).

Substrate in data set [2]: OCCc1ccc(O)cc1
The data set is described as follows: Michaelis-Menten kinetics of RrT8GT (RrUGT33), tyrosol 8-O-glucosylation. The class given is biochemical, Rhodiola rosea. As to conditions: other: substrate tyrosol (0.01-5.0 mM), 10 mM UDP-glucose, pH 8.0, 30° C., 10 min. The method, then:
Kinetic characterization of UGTs was conducted in 200 μL reaction buffer (50 mM Tris, pH 8.0) containing 10 mM UDP-glucose and various concentrations of tyrosol (0.01-5.0 mM). Reactions were started with addition of recombinant enzyme, incubated at 30° C. for 10 minutes, and quenched by addition of 200 μL of methanol. The reaction mixed was then analyzed by LC-HRAR-MS as described above. Compounds were separated by reversed-phase chromatography with a ramp gradient of solvent A (0.1% formic acid in H2O) and solvent B (0.1% formic acid in acetonitrile): 5% solvent B for 0.5 min, 5-55% solvent B over 6 min, 55-5% solvent B over 1.0 min and a final equilibration of 5% solvent B for 1 min with a flow rate at 0.6 mL/min. Product formation was measured using select ion monitoring in positive mode for a centroid center mass of 318.15. Product mass was calculated by comparison to a standard curve of the NMR verified plant purified salidroside and icariside D2 samples.
as §2

A further data set relates to N. benthamiana leaves. The data set is described as follows: Agrobacterium-mediated transient expression in leaves with LC-HRAM-MS metabolic profiling. The class given is in vivo. As to conditions: leaves harvested 5 days after infiltration. On the procedure:
To further evaluate the biochemical function of R. rosea tyrosol glycoside biosynthetic genes in planta, these genes were expressed in N. benthamiana leaves using the Agrobacterium tumefaciens-mediated transient protein production technique (Sainsbury et al., 2009) followed by LC-HRAM-MS-based metabolic profiling. […] PsTyDC and the previously reported Petroselinum crispum 4HPAAS (Pc4HPAAS, GenBank: AAA33861) (Torrens-Spence et al., 2012) were also tested in parallel as controls. […] The chemical identity of these compounds was confirmed by both LC-HRAM-MS and nuclear magnetic resonance (NMR) analyses (FIGS. 20-26). […] Next, the in planta regio-specificity of RrT8GT and RrT4GT in tyrosol glycosylation was evaluated. […] Meanwhile, the accumulation of free tyrosol was reduced in these plants compared to those with Rr4HPAAS expression alone (FIG. 27). […]
Crown tissue and root tissue of a three-month-old R. rosea plant was harvested and stored at −80° C. before subsequent metabolomic analysis. […] The extracts were then analyzed by LC-HRAM-MS. […]

Substrate in data set [3]: N[C@@H](Cc1ccc(O)c(O)c1)C(=O)O
The data set is described as follows: purified protein, by the assay type. As to conditions: other: amino acid substrate 1 μM-4 mM, 200 μM PLP, pH 8.0, 30° C., 30 min, peroxide assay.

Substrate in data set [4]: N[C@@H](Cc1ccc(O)cc1)C(=O)O
The data set is described as follows: purified protein, by the assay type. As to conditions: other: amino acid substrate 1 μM-4 mM, 200 μM PLP, pH 8.0, 30° C., 30 min, peroxide assay.

The nature of data set [5]: Hydrogen peroxide production from L-tyrosine by recombinant AAS candidates. The data set is classed as biochemical. As to conditions: L-tyrosine as substrate. On the procedure:
FIG. 12 is a graph showing relative hydrogen peroxide production for the Rr4HPAAS, the RrAAS and the PsTyDC. 100 μL reaction mixtures containing 50 μg of recombinant enzyme, 2 mM L-tyrosine, 50 mM Tris pH 8.0 and 200 μM PLP were incubated at 30° C. for various time points prior to quenching with 100 μL of 0.8 M formic acid. Hydrogen peroxide levels of quenched reaction mixtures were subsequently analyzed using Pierce Quantitative Peroxide Assay Kit against a standard curve of hydrogen peroxide.
as §1, with “PLP.” for “PLP. Kinetic reactions were incubated with a range of amino acid substrate concentrations (1 μM-4 mM) at 30° C. for 30 minutes prior to quenching with 100 μL of 0.8 M formic acid.”, “To resolve chromatographically L-tyrosine, tyrosol and 4-HPAAA, compounds were separated through the use of an isocratic mobile phase containing 50 mM monopotassium phosphate pH 4.6, 15% (v/v) acetonitrile and 0.5 mM octyl sulfate.” left out

Turning to `N[C@@H](Cc1c[nH]c2ccccc12)C(=O)O` [L-tryptophan], in data set [1], the “substrate preference (Michaelis-Menten kinetics, in words)” value is recorded as “much less preferred substrates”.
Turning to `N[C@@H](Cc1ccccc1)C(=O)O` [L-phenylalanine], the “substrate preference (Michaelis-Menten kinetics, in words)” value in data set [1] is listed as “much less preferred substrates”.

B1: Rhodiola rosea RrT8GT (RrUGT33), tyrosol:UDP-glucose 8-O-glucosyltransferase, SEQ ID NO: 20 (Rhodiola rosea) (protein)
chain: MSLIEKPLTAIETREKPHAVCIPYPAQGHINPMMQLAKLLHHSGFHITFVHTEYNYDRLVKSQGSACVAGLPDFRFEAIPDGLPSTNGDVTQDIPLLSSSTSKTCLKPFKELLKRLQDKCKELPDDVPPLSCIVSDAAMSFTIDASEEFGVPIALLWTASACGFLGYTHYPYLIDRGVIPLKDESQLTNGYLDMSIDGIPCMEGIRLRDLPSFLRTTDLDDMMFSYILHEIKQVSRGSAIILNTFEALDHDVLDSLSKIYQNVILPVGPLHVSLNKIPKHYPLQSLSSNLWKDDTDCIPWLSSKASKSVIYVNFGSITTVSPKQIVEFAWGLANSKHPFLWIIRPDLVAGEASIIPQDFMDETKGRGLLAGWCDQELVLNHPSIGGFLTHCGWNSIIESISAGVPTVCWPFFAEQQTNCWFACKKWCIGMEMHTDVKRDEVDKLLRELMEGDKGEELKRKATNWKRLAEEAVSSTGLSTLNFRTLVNQVLLSKTKHIR
Consider B1, for which, in data set [2], the Km was 1370 ± 50 µM, the kcat is 576.2 ± 5.68 s⁻¹ and the kcat/Km worked out at 421000 M⁻¹ s⁻¹.

B2: PsTyDC: Papaver somniferum tyrosine decarboxylase, tested as control (protein, UniProt O82415 1-512, looked up)
Tyrosine decarboxylase: MGSLPTNNLESISLCSQNPLDPDEFRRQGHMIIDFLADYYKNVEKYPVRSQVEPGYLKKRLPESAPYNPESIETILEDVTNDIIPGLTHWQSPNYFAYFPSSGSIAGFLGEMLSTGFNVVGFNWMSSPAATELESIVMNWLGQMLTLPKSFLFSSDGSSGGGGVLQGTTCEAILCTLTAARDKMLNKIGRENINKLVVYASDQTHCALQKAAQIAGINPKNVRAIKTSKATNFGLSPNSLQSAILADIESGLVPLFLCATVGTTSSTAVDPIGPLCAVAKLYGIWVHIDAAYAGSACICPEFRHFIDGVEDADSFSLNAHKWFFTTLDCCCLWVKDSDSLVKALSTSPEYLKNKATESKQVIDYKDWQIALSRRFRSMKLWLVLRSYGVANLRTFLRSHVKMAKHFQGLIGMDNRFEIVVPRTFAMVCFRLKPTAIFKQKIVDNDYIEDQTNEVNVKLLESVNASGKIYMTHAVVGGVYMIRFAVGATLTEERHVTGAWKVVQEHTDAILGA
Consider B2, for which the “metabolites produced on expression of the enzyme alone” value with N. benthamiana leaves is listed as “no measurable production of tyrosol glycosides”.

B3: Rhodiola rosea Rr4HPAAS, 4-hydroxyphenylacetaldehyde synthase, GenBank MF674522, SEQ ID NO: 2 (Rhodiola rosea) (protein)
chain: MGSLPSPNDPSNTFNPMDLTELSTESKLVVDFITQYYQTLETRPVQPRVKPGFLTGQLPDKAPFHGESMEVILSDVNEKIVPGLTHWQSPNFHAYFPASSSNAGLLGELLCSGLSVIGFTWSSSPAATELENVVVDWMAKMLNLPSSFCFSGGGGGVLQANTCEAVLCTLAAARDKALNRVGDDQINKLVLYCSDQTHFTIHKGAKLIGIRSKNIKSITTKKENEFKLCPNDLRDAIRSDLEAGLVPFYVCGTIGTTALGVVDPIKELGKVAREFDLWLHVDGAYGGSACICPEFQHYLDGVDLVDSISMNAHKWLLSNLDCCFLWLQSPNALIESLAAEANFLKGGSEMVDYKDWQISLSRRFRAIKMWMVIRRYGVSNLIEHIRSDVSMAVRFEEMVAADDRFEIVFPRKFALVCFKLSSEKTPPGRDSELTRELMERVNSSGKAYLSGVQMGRIFFIRCVIGSSLTEERHVDNLWRLIQETAQSIVS
Turning to B3, the Km in data set [3] turned out to be 1040 ± 100 µM. Besides, in data set [4], the Km came out at 420 ± 20 µM, the kcat amounted to 4.92 ± 0.08 s⁻¹ and the kcat/Km came to 11700 M⁻¹ s⁻¹. For the same molecule, the “metabolites produced on expression of the enzyme alone” value in the data set with N. benthamiana leaves was “significant accumulation of both salidroside and icariside D2”. In data set [5], the hydrogen peroxide production entry is reported as “much higher activity”.
